Common to all, as to settings: both partners purified
The target in assay [1] is N-terminal bromodomain of human BRD4 (residues 44–168) (human, UniProt O60885 44-168). The assay can be described thus: ITC; 100 µM protein in the cell, 1 mM acetylated histone NT peptide in the syringe; 25 °C; 10 mM HEPES-NaOH pH 7.4, 150 mM NaCl; single binding site model. In general terms: ITC needs no label: the signal is the heat of the interaction.
The target in assay [2] is T1, K12/K16-acetylated human histone H4 (as it stands in H4acNuc) (human, UniProt P62805 1-103, acetyl-lysine at K12 and K16).
T1 construct: human histone H4 ORF with the codons of K12 and K16 replaced by TAG for acetyllysine; The H4 chain of m6; met p300/CBP only inside the nucleosome; also called H4K12ac/K16ac; H4NTac; source: cell-free synthesis (E. coli S30 extract, genetic code reprogramming), purified, assembled into H4acNuc
The assay can be described thus: cryo-EM structure; p300_(BRPHZT) or CBP_(BRPHZT), acetyl-CoA and nucleosome mixed 4:6:1 in 20 mM HEPES-NaOH pH 7.2, 150 mM NaCl, 1 μM ZnCl2, 1 mM TCEP; purified and cross-linked by GraFix (glutaraldehyde).

The target in assay [3] is T2, human p300BRP (residues 1048–1282), wild type (human, UniProt Q09472 1048-1282, fluorescently labeled with a His tag Labeling Kit (microscale thermophoresis only)).
T2 sequence (looked up): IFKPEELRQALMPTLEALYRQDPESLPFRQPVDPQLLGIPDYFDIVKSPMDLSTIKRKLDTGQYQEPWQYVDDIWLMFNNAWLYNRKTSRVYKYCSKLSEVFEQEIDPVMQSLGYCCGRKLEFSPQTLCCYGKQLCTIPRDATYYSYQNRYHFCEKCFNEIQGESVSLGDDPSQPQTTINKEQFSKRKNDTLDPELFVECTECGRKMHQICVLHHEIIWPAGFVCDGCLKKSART
The assay can be described thus: ITC; 100 µM protein in the cell, 1 mM acetylated histone NT peptide in the syringe; 25 °C; 10 mM HEPES-NaOH pH 7.4, 150 mM NaCl; single binding site model.

Where no end group is shown, it is not given here.

The text below walks through data of publication PMC10352329 (Nature Communications, 2023).

B1: di-acetylated H2B peptide K12ac/K15ac (peptide)
chain: PAPKK(Ac)GSK(Ac)KAVTK
Usually Kd stands for the constant that tells how readily two partners part at equilibrium. A low value points to higher affinity. As for B1, binding in assay [1] was put at a Kd of 430 ± 5 µM.

B2: human p300_(BRPHZT) (residues 1048–1836) (domain or fragment)
chain: IFKPEELRQALMPTLEALYRQDPESLPFRQPVDPQLLGIPDYFDIVKSPMDLSTIKRKLDTGQYQEPWQYVDDIWLMFNNAWLYNRKTSRVYKYCSKLSEVFEQEIDPVMQSLGYCCGRKLEFSPQTLCCYGKQLCTIPRDATYYSYQNRYHFCEKCFNEIQGESVSLGDDPSQPQTTINKEQFSKRKNDTLDPELFVECTECGRKMHQICVLHHEIIWPAGFVCDGCLKKSARTRKENKFSAKRLPSTRLGTFLENRVNDFLRRQNHPESGEVTVRVVHASDKTVEVKPGMKARFVDSGEMAESFPYRTKALFAFEEIDGVDLCFFGMHVQEYGSDCPPPNQRRVYISYLDSVHFFRPKCLRTAVYHEILIGYLEYVKKLGYTTGHIWACPPSEGDDYIFHCHPPDQKIPKPKRLQEWYKKMLDKAVSERIVHDYKDIFKQATEDRLTSAKELPYFEGDFWPNVLEESIKELEQEEEERKREENTSNESTDVTKGDSKNAKKKNNKKTSKNKSSLSRGNKKKPGMPNVSNDLSQKLYATMEKHKEVFFVIRLIAGPAANSLPPIVDPDPLIPCDLMDGRDAFLTLARDKHLEFSSLRRAQWSTMCMLVELHTQSQDRFVYTCNECKHHVETRWHCTVCEDYDLCITCYNTKNHDHKMEKLGLGLDDESNNQQAAATQSPGDSRRLSIQRCIQSLVHACQCRNANCSLPSCQKMKRVVQHTKGCKRKTNGGCPICKQLIALCCYHAKHCQENKCPVPFCLNIKQKLRQQQLQHRLQQAQMLRRRMASMQ
modifications: autoacetylated form containing K1542ac, K1546ac, K1549ac, K1550ac, K1551ac, K1554ac, K1555ac, K1558ac and K1560ac
For B2, in assay [2], the binding result is reported as “binds”.

B3: di-acetylated H2B peptide K20ac/K23ac (peptide)
chain: KAVTK(Ac)AQK(Ac)KDGK
B3 had a Kd in assay [3] of 200 ± 30 µM.

B4: human CBP_(BRPHZT) (residues 1084–1873) (domain or fragment)
chain: IFKPEELRQALMPTLEALYRQDPESLPFRQPVDPQLLGIPDYFDIVKNPMDLSTIKRKLDTGQYQEPWQYVDDVWLMFNNAWLYNRKTSRVYKFCSKLAEVFEQEIDPVMQSLGYCCGRKYEFSPQTLCCYGKQLCTIPRDAAYYSYQNRYHFCEKCFTEIQGENVTLGDDPSQPQTTISKDQFEKKKNDTLDPEPFVDCKECGRKMHQICVLHYDIIWPSGFVCDNCLKKTGRPRKENKFSAKRLQTTRLGNHLEDRVNKFLRRQNHPEAGEVFVRVVASSDKTVEVKPGMKSRFVDSGEMSESFPYRTKALFAFEEIDGVDVCFFGMHVQEYGSDCPPPNTRRVYISYLDSIHFFRPRCLRTAVYHEILIGYLEYVKKLGYVTGHIWACPPSEGDDYIFHCHPPDQKIPKPKRLQEWYKKMLDKAFAERIIHDYKDIFKQATEDRLTSAKELPYFEGDFWPNVLEESIKELEQEEEERKKEESTAASETTEGSQGDSKNAKKKNNKKTNKNKSSISRANKKKPSMPNVSNDLSQKLYATMEKHKEVFFVIHLHAGPVINTLPPIVDPDPLLSCDLMDGRDAFLTLARDKHWEFSSLRRSKWSTLCMLVELHTQGQDRFVYTCNECKHHVETRWHCTVCEDYDLCINCYNTKSHAHKMVKWGLGLDDEGSSQGEPQSKSPQESRRLSIQRCIQSLVHACQCRNANCSLPSCQKMKRVVQHTKGCKRKTNGGCPVCKQLIALCCYHAKHCQENKCPVPFCLNIKHKLRQQQIQHRLQQAQLMRRRMATMN
Take B4: the binding result in assay [2] is given as “binds”.
